Experiments:
Details in all cases: remark: other sources report otherwise
[1] = molecular target: HLA-B*3501 (human); test: inhibition of 125I-B35con2 probe, purified HLA
[2] = molecular target: HLA-A*0301 (human); test: competition vs 125I probe, purified HLA
[3] = molecular target: HLA-A*1101 (human); test: competitive inhibition of 125I-A3con binding to purified HLA
[4] = molecular target: HLA-A*1101 (human); test: competition vs 125I probe, purified HLA
[5] = molecular target: HLA-A*3101 (human); test: competition vs 125I probe, purified HLA
[6] = molecular target: HLA-B*4002 (human); test: competition with radiolabeled probe peptide, purified HLA
[7] = molecular target: HLA-A*6801 (human); test: competition vs 125I probe, purified HLA
[8] = molecular target: HLA-B*0702 (human); test: inhibition of 125I-[..] probe, purified HLA
[9] = molecular target: HLA-B*5401 (human); test: competition vs 125I probe, purified HLA
[10] = molecular target: HLA-A*3301 (human); test: competition vs 125I probe, purified HLA
[11] = molecular target: HLA-B*5301 (human); test: competition vs 125I probe, purified HLA
[12] = molecular target: HLA-A*3101 (human); test: competitive inhibition of 125I-A3con binding to purified HLA
[13] = molecular target: HLA-A*0301 (human); test: as above

APAPAPSW [p53.84 APAPAPSW]
IC50 [1]: 32.7 nM

GTRVRAMAIYK [p53.154]
IC50 [2]: 10 nM

SSFSTTINK [MAGE2.69.K9 …]
IC50 [3]: 3 nM

SSCMGGMNRR [p53.240 (10-mer)]
IC50 [4]: 70 nM

TVINYTLWK [MAGE2.73.V2K9]
IC50 [5]: 9000 nM

SSCMGGMNR [p53.240 (9-mer)]
IC50 [2]: 550 nM
IC50 [4]: 4.3 nM

KTYQGSYGFK [p53.101.K10]
IC50 [4]: 14 nM

YVFPVIFSK [MAGE3.138.V2 …]
IC50 [3]: 3 nM

GERLPQPPICTI […]
IC50 [6]: 9.5 nM

KVYQGSYGFR [p53.101.V2]
IC50 [2]: 38 nM
IC50 [4]: 62 nM
IC50 [5]: 72 nM
IC50 [7]: 40 nM

YVFPVIFSR [MAGE3.138.V2R9]
IC50 [2]: 36 nM
IC50 [5]: 6 nM

GVRVRAMAIYK [p53.154.V2]
IC50 [2]: 58 nM

YFFPVIFSK [MAGE3.138]
IC50 [2]: 5000 nM

SVSRHKKLMFK [p53.375.V2]
IC50 [2]: 33 nM

LLGDNQIMPK [MAGE3.189]
IC50 [2]: 500 nM

KMFCQLAK [p53.132]
IC50 [2]: 29 nM
IC50 [4]: 17 nM
IC50 [7]: 727 nM

KTYQGSYGFK [p53.101.K10 …]
IC50 [3]: 14 nM

FSTTINYTLWR [MAGE2.71]
IC50 [2]: 1000 nM

LVHFLLLK [MAGE2/3.116 (8-mer)]
IC50 [4]: 40 nM
IC50 [7]: 400 nM

YPLWSQSI [MAGE3.77.I8 YPLWSQSI]
IC50 [8]: 60 nM

IPWQRLLLTA [CEA.13]
IC50 [9]: 3.2 nM

YVFPVIFSK [MAGE3.138.V2]
IC50 [4]: 3 nM

RVRAMAIYK [p53.156]
IC50 [5]: 5 nM

RVCACPGR [p53.273 (8-mer)]
IC50 [2]: 31 nM

SMLEVFEGR [MAGE2.226]
IC50 [10]: 9 nM

ALIETSYVK [MAGE2.277]
IC50 [5]: 900 nM

KPYDGIPI [Her2/neu.921I8]
IC50 [11]: 51.7 nM

CTYSPALNK [p53.124 …]
IC50 [12]: 1500 nM

RVCACPGR [p53.273 RVCACPGR]
IC50 [13]: 31 nM

RVRAMAIYR [p53.156.R9]
IC50 [5]: 9 nM

KVYQGSYGFK [p53.101.V2K10]
IC50 [2]: 33 nM
IC50 [4]: 9.2 nM
IC50 [7]: 38 nM

SVSRHKKLMFR [p53.376.V2R11]
IC50 [7]: 500 nM

CTYSPALNK [p53.124]
IC50 [5]: 1500 nM

LVHFLLLKY [MAGE2/3.116 (9-mer)]
IC50 [7]: 8000 nM

SSFSTTINK [MAGE2.69.K9]
IC50 [4]: 3 nM

GTRVRAMAIYK [p53.154 …]
IC50 [13]: 10 nM

Source: patent publication US20060094649A1
